Changes are numbered by the printed parent chain. Names and notes keep the numbering of the source. Like-named read-outs stand apart in the source and are kept apart here.
Legend:
[1] = biological target: T1, c-MET on human target cells (human, UniProt P08581 25-1390); experiment: cell-based or functional assay
[2] = biological target: T1, c-MET on human target cells; experiment: cell-based or functional assay; remark: listed apart in the source
[3] = biological target: T1, c-MET on human target cells; experiment: cell-based or functional assay; remark: listed apart in the source
[4] = biological target: T1, c-MET on human target cells; experiment: cell-based or functional assay; remark: listed apart in the source
[5] = biological target: T2, AF647 labeled c-met protein (UniProt P08581 25-932, limits assumed, labeled with AlexaFluor 647 (AF647)); experiment: flow cytometry, EC50 relative to parental Affy7 CAR-T cells (Round 1)
T2 construct: Soluble labeled c-met protein titrated on CAR-T cells
T2 sequence (P08581 25-932 limits assumed): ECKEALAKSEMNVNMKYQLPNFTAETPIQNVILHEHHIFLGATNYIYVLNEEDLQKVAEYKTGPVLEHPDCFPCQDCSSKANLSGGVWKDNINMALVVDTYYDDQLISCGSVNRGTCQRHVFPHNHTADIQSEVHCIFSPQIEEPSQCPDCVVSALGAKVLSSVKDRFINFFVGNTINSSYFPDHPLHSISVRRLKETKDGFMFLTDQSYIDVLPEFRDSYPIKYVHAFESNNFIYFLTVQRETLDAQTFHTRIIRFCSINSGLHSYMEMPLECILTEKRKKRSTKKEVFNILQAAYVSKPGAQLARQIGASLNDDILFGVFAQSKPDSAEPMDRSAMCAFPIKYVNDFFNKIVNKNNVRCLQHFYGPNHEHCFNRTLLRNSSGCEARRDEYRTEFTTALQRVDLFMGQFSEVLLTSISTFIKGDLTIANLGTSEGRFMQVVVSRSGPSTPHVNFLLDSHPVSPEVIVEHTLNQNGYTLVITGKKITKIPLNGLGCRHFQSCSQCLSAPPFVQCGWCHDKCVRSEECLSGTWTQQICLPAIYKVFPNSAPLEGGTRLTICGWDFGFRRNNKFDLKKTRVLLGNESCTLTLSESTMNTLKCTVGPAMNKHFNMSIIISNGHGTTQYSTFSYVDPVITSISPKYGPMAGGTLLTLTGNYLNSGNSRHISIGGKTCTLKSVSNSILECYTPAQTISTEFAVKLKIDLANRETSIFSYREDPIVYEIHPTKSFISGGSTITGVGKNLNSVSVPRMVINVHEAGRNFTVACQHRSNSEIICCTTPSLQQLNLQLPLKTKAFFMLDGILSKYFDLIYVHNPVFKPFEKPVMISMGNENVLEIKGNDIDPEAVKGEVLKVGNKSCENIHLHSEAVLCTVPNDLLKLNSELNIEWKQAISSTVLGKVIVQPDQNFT
Experimental: (§1) Binding of labeled c-MET to CAR-T cells expressing the affinity tuned c-MET scFvs was evaluated by transducing lentivirus anti-c-MET CAR particles into human T cells to form c-MET CAR-T cells incubated with AF647-labeled c-MET. […] Following a 48 hr. incubation at 37° C., the culture media was brought up to […] per well and incubated at 37° C. for 10 days.
(§2) Cells were stained on ice for 30 mins and then washed with PBS. After washing, residually bound protein on CAR T cells were measured on a flow cytometer (Beckman, CytoFLEX®). The resulting binding data was fit using a non-linear regression analysis on GraphPad Prism to calculate half effective dose concentration (EC₅₀) values. The results of this analysis are shown in FIGS. 2-5 and Tables 2-5 below.

[6] = biological target: T2, AF647 labeled c-met protein; experiment: flow cytometry, AF647-labeled c-met protein titrated on CAR-T cells (Round 1)
Experimental: as §1, §2

[7] = biological target: T2, AF647 labeled c-met protein; experiment: flow cytometry, AF647-labeled c-met protein on CAR-T cells; lower end tied to Affy7-L9A by Table 2
Experimental: as §2

[8] = biological target: T1, c-MET on human target cells; experiment: cell-based or functional assay; remark: listed apart in the source
[9] = biological target: T1, c-MET on human target cells; experiment: cell-based or functional assay; remark: listed apart in the source
[10] = biological target: T1, c-MET on human target cells; experiment: cell-based or functional assay; remark: listed apart in the source
[11] = biological target: T1, c-MET on human target cells; experiment: cell-based or functional assay; remark: listed apart in the source
[12] = biological target: T1, c-MET on human target cells; experiment: cell-based or functional assay; remark: listed apart in the source
[13] = biological target: T1, c-MET on human target cells; experiment: cell-based or functional assay; remark: listed apart in the source
[14] = biological target: T1, c-MET on human target cells; experiment: cell-based or functional assay; remark: listed apart in the source
[15] = biological target: T1, c-MET on human target cells; experiment: cell-based or functional assay; remark: listed apart in the source
[16] = biological target: T2, AF647 labeled c-met protein; experiment: flow cytometry, EC50 relative to parental Affy6 CAR-T cells (Round 1)
Experimental: as §1, §2

T1 sequence (P08581 25-1390): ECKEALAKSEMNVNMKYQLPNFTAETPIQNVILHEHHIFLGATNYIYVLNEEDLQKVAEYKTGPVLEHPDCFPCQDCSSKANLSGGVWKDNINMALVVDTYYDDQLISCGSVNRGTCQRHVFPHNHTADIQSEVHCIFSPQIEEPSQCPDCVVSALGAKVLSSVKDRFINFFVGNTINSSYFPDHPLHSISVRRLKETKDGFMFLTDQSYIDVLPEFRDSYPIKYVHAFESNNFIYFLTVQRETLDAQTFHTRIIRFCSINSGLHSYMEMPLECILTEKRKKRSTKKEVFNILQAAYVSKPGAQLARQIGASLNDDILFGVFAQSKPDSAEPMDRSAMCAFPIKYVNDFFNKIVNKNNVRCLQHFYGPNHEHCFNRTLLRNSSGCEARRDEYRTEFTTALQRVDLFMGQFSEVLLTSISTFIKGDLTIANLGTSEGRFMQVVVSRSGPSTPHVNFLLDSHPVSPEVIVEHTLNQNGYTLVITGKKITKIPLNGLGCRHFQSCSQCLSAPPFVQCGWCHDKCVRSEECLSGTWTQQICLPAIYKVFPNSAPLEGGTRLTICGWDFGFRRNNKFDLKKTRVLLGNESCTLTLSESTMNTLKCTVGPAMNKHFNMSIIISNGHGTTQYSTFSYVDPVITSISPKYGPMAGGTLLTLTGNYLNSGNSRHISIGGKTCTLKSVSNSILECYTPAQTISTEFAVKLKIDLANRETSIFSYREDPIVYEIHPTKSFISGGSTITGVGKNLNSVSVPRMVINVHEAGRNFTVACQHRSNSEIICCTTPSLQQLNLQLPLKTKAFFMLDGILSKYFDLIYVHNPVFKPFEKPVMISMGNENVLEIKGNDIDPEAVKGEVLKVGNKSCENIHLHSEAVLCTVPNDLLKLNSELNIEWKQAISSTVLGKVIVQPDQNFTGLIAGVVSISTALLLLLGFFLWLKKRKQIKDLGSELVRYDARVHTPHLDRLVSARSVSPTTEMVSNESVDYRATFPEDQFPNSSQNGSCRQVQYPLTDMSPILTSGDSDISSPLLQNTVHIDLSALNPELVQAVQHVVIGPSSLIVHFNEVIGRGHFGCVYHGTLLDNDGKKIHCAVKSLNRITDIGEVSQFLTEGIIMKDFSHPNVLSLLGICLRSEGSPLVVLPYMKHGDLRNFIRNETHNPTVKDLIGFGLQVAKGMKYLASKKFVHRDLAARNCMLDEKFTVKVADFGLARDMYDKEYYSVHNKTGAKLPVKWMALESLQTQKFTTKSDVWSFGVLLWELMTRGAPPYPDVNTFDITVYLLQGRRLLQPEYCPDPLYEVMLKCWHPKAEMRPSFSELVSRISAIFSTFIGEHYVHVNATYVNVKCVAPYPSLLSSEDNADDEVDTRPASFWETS

B1: Affy7-L9A CAR (other)
chain: GSEQKLISEEDLGSQVQLQQSGPELVRPGASVKMSCRASGYTFTSYWLHWVKQRPGQGLEWIGMIDPSNSDTRFNPNFKDKATLNVDRSSNTAYMLLSSLTSADSAVYYCATYGSYVSPADYWGQGTSVTVSSGGGGSGGGGSGGGGSDIMMSQSPSSLTVSVGEKVTVSCKSSQSLLYTSSQKNYLAWYQQKPGQSPKLLIYWASTRESGVPDRFTGSGSGTDFTLTITSVKADDLAVYYCQQYYAYPWTFGGGTKLEIKRASTTTPAPRPPTPAPTIASQPLSLRPEACRPAAGGAVHTRGLDFACDFWVLVVVGGVLACYSLLVTVAFIIFWVRSKRSRLLHSDYMNMTPRRPGPTRKHYQPYAPPRDFAAYRSLRVKFSRSADAPAYQQGQNQLYNELNLGRREEYDVLDKRRGRDPEMGGKPRRKNPQEGLYNELQKDKMAEAYSEIGMKGERRRGKGHDGLYQGLSTATKDTYDALHMQALPPR
notes: CAR on transduced human T cells; L to A in HC CDR3; P2A remnant not included; also called MycT-Affy7-L9A CAR-SSTR2
[1]
  cytotoxicity, Normal Human Lung Cells, 8 hrs: 7.5
  cytotoxicity, Normal Human Lung Cells, 16 hrs: 20.9
  cytotoxicity, Normal Human Lung Cells, 24 hrs: 38.3
  cytotoxicity, Normal Human Lung Cells, 32 hrs: 46.4
  cytotoxicity, Normal Human Lung Cells, 40 hrs: 50.7
  cytotoxicity, Normal Human Lung Cells, 47 hrs: 45.3
[2]
  cytotoxicity, Normal Human Liver Cells, 8 hrs: 13.7
  cytotoxicity, Normal Human Liver Cells, 16 hrs: 24.5
  cytotoxicity, Normal Human Liver Cells, 24 hrs: 32.8
  cytotoxicity, Normal Human Liver Cells, 32 hrs: 37.9
  cytotoxicity, Normal Human Liver Cells, 40 hrs: 50.1
  cytotoxicity, Normal Human Liver Cells, 48 hrs: 60
[3]
  cytotoxicity, Normal Human Kidney Cells, 8 hrs: 12.9
  cytotoxicity, Normal Human Kidney Cells, 16 hrs: 23.9
  cytotoxicity, Normal Human Kidney Cells, 24 hrs: 30.7
  cytotoxicity, Normal Human Kidney Cells, 32 hrs: 38.8
  cytotoxicity, Normal Human Kidney Cells, 40 hrs: 46.9
  cytotoxicity, Normal Human Kidney Cells, 48 hrs: 54.7
[4]
  cytotoxicity, Normal Human Colon Cells, 8 hrs: 12.1
  cytotoxicity, Normal Human Colon Cells, 16 hrs: 25
  cytotoxicity, Normal Human Colon Cells, 24 hrs: 27.2
  cytotoxicity, Normal Human Colon Cells, 32 hrs: 38.2
  cytotoxicity, Normal Human Colon Cells, 40 hrs: 48.5
  cytotoxicity, Normal Human Colon Cells, 48 hrs: 49.6
[5]
  Fold Change: 20 fold
[6]
  EC50: 1 µM
[7]
  fold reduction in affinity relative to the parental-expressing CARs: 20 to 7640 fold

B2: Affy7-Y6A CAR (other)
chain: B1 chain with Y113A, A120L
notes: CAR on transduced human T cells; Y to A in HC CDR3; P2A remnant not included; also called Affy-Y6A; MycT-Affy7-Y6A CAR-SSTR2
[8]
  percent cytotoxicity, SNU638, 24 hrs: 79.2%
  percent cytotoxicity, SNU638, 48 hrs: 93.5%
  percent cytotoxicity, SNU638, 72 hrs: 98.7%
[9]
  percent cytotoxicity, Hs746T, 24 hrs: 88.3%
  percent cytotoxicity, Hs746T, 48 hrs: 98.4%
  percent cytotoxicity, Hs746T, 72 hrs: 98.8%
[10]
  percent cytotoxicity, H1993, 24 hrs: 85.7%
  percent cytotoxicity, H1993, 48 hrs: 96.9%
  percent cytotoxicity, H1993, 72 hrs: 99.2%
[1]
  cytotoxicity, Normal Human Lung Cells, 8 hrs: 13.1
  cytotoxicity, Normal Human Lung Cells, 16 hrs: 31.3
  cytotoxicity, Normal Human Lung Cells, 24 hrs: 47.6
  cytotoxicity, Normal Human Lung Cells, 32 hrs: 50
  cytotoxicity, Normal Human Lung Cells, 40 hrs: 53
  cytotoxicity, Normal Human Lung Cells, 47 hrs: 52.1
[11]
  cytotoxicity, Normal Human Lung Cells, 8 hrs: 30.6
  cytotoxicity, Normal Human Lung Cells, 16 hrs: 32.6
  cytotoxicity, Normal Human Lung Cells, 24 hrs: 40.1
  cytotoxicity, Normal Human Lung Cells, 32 hrs: 48.3
  cytotoxicity, Normal Human Lung Cells, 40 hrs: 56.5
  cytotoxicity, Normal Human Lung Cells, 48 hrs: 64
[2]
  cytotoxicity, Normal Human Liver Cells, 8 hrs: 14.2
  cytotoxicity, Normal Human Liver Cells, 16 hrs: 26.3
  cytotoxicity, Normal Human Liver Cells, 24 hrs: 33.1
  cytotoxicity, Normal Human Liver Cells, 32 hrs: 40.1
  cytotoxicity, Normal Human Liver Cells, 40 hrs: 55
  cytotoxicity, Normal Human Liver Cells, 48 hrs: 65
[12]
  cytotoxicity, Normal Human Liver Cells, 8 hrs: 19.3
  cytotoxicity, Normal Human Liver Cells, 16 hrs: 29.8
  cytotoxicity, Normal Human Liver Cells, 24 hrs: 44.8
  cytotoxicity, Normal Human Liver Cells, 32 hrs: 53.9
  cytotoxicity, Normal Human Liver Cells, 40 hrs: 57.5
  cytotoxicity, Normal Human Liver Cells, 48 hrs: 58.5
[3]
  cytotoxicity, Normal Human Kidney Cells, 8 hrs: 15.8
  cytotoxicity, Normal Human Kidney Cells, 16 hrs: 27.1
  cytotoxicity, Normal Human Kidney Cells, 24 hrs: 29.4
  cytotoxicity, Normal Human Kidney Cells, 32 hrs: 31.1
  cytotoxicity, Normal Human Kidney Cells, 40 hrs: 42.6
  cytotoxicity, Normal Human Kidney Cells, 48 hrs: 54.7
[13]
  cytotoxicity, Normal Human Kidney Cells, 8 hrs: 29.2
  cytotoxicity, Normal Human Kidney Cells, 16 hrs: 39.3
  cytotoxicity, Normal Human Kidney Cells, 24 hrs: 48.9
  cytotoxicity, Normal Human Kidney Cells, 32 hrs: 53.9
  cytotoxicity, Normal Human Kidney Cells, 40 hrs: 60.5
  cytotoxicity, Normal Human Kidney Cells, 48 hrs: 65.9
[4]
  cytotoxicity, Normal Human Colon Cells, 8 hrs: 13.1
  cytotoxicity, Normal Human Colon Cells, 16 hrs: 25
  cytotoxicity, Normal Human Colon Cells, 24 hrs: 25.6
  cytotoxicity, Normal Human Colon Cells, 32 hrs: 35.8
  cytotoxicity, Normal Human Colon Cells, 40 hrs: 45.4
  cytotoxicity, Normal Human Colon Cells, 48 hrs: 45.6
[14]
  cytotoxicity, Normal Human Colon Cells, 8 hrs: 26.5
  cytotoxicity, Normal Human Colon Cells, 16 hrs: 36.3
  cytotoxicity, Normal Human Colon Cells, 24 hrs: 42.5
  cytotoxicity, Normal Human Colon Cells, 32 hrs: 51.5
  cytotoxicity, Normal Human Colon Cells, 40 hrs: 62.7
  cytotoxicity, Normal Human Colon Cells, 48 hrs: 70.7
[5]
  Fold Change: 66 fold
[6]
  EC50: 3.3 µM

B3: Affy6-I3A CAR (other)
chain: GSEQKLISEEDLGSQVQLVQSGAEVKKPGASVKVSCKASGYIFTAYTMHWVRQAPGQGLEWMGWIKPNNGLANYAQKFQGRVTMTRDTSISTAYMELSRLRSDDTAVYYCARSEATTEFDYWGQGTLVTVSSGGGGSGGGGSGGGGSDIVLTQSPDSLAVSLGERATINCKSSESVDSYANSFMHWYQQKPGQPPKLLIYRASTRESGVPDRFSGSGSRTDFTLTISSLQAEDVAVYYCQQSKEDPLTFGGGTKVEIKASTTTPAPRPPTPAPTIASQPLSLRPEACRPAAGGAVHTRGLDFACDFWVLVVVGGVLACYSLLVTVAFIIFWVRSKRSRLLHSDYMNMTPRRPGPTRKHYQPYAPPRDFAAYRSLRVKFSRSADAPAYQQGQNQLYNELNLGRREEYDVLDKRRGRDPEMGGKPRRKNPQEGLYNELQKDKMAEAYSEIGMKGERRRGKGHDGLYQGLSTATKDTYDALHMQALPPR
notes: CAR on transduced human T cells; I to A in HC CDR3; P2A remnant not included; also called MycTAffy6-I3A CAR-SSTR2
[15]
  percent cytotoxicity, H1993, 24 hrs: 73.1%
  percent cytotoxicity, H1993, 48 hrs: 95.3%
  percent cytotoxicity, H1993, 72 hrs: 98.9%
[16]
  Fold Change: 956 fold
[6]
  EC50: 20.9 µM
